From patent US20200283521A1 (GRANULAR THERAPEUTICS, published 2020)

How the values were obtained:
Assay in all cases: cell array, transfected fixed HEK293 cells
MS4A1 = target: T1, MS4A1 (human, UniProt P11836)
T1 construct: expressed in transfected HEK293 cells; also called CD20
T1 sequence (looked up): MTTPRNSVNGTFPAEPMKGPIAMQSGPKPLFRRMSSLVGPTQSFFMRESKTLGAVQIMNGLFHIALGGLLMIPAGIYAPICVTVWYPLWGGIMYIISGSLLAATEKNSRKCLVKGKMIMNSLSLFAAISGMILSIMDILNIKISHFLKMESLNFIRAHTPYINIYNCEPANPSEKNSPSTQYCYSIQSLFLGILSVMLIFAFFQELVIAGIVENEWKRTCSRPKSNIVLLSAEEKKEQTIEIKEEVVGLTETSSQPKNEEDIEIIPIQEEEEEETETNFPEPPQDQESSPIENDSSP
Description: (§1) Transfection of all plasmids was confirmed by screening for the co-encoded marker ZS green (FIG. 13A).
(§2) Primary hits (duplicate spots) were identified by analysing fluorescence (AF647 and ZsGreenl) on ImageQuant. Vectors encoding all hits were sequenced to confirm their correct identities. […] Slides were analysed as above.

EGFR = target: T2, EGFR (human, UniProt P00533)
T2 construct: expressed in transfected HEK293 cells
Description: as §1, §2

ANXA6 = target: T3, ANXA6 (human, UniProt P08133)
T3 construct: expressed in transfected HEK293 cells
T3 sequence (looked up): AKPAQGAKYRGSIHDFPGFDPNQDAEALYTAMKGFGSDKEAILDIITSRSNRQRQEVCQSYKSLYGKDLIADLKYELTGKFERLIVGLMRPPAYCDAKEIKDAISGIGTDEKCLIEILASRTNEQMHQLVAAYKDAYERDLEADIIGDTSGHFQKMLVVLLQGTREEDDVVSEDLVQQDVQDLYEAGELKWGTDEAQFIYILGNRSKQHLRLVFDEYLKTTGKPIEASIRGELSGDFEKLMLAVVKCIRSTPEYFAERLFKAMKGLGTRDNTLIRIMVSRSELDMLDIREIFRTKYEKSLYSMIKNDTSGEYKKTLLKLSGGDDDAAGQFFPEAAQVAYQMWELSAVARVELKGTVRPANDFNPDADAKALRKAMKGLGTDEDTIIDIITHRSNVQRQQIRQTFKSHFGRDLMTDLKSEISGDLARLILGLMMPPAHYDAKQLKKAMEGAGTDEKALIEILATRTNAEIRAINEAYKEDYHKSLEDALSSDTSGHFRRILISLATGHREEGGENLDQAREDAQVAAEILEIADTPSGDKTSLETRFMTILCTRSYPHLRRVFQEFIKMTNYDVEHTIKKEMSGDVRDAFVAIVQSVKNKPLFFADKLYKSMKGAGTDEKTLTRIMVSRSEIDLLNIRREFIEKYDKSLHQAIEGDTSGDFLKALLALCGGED
Description: as §1, §2

TGM2 = target: T4, TGM2 (human, UniProt P21980)
T4 construct: expressed in transfected HEK293 cells
T4 sequence (looked up): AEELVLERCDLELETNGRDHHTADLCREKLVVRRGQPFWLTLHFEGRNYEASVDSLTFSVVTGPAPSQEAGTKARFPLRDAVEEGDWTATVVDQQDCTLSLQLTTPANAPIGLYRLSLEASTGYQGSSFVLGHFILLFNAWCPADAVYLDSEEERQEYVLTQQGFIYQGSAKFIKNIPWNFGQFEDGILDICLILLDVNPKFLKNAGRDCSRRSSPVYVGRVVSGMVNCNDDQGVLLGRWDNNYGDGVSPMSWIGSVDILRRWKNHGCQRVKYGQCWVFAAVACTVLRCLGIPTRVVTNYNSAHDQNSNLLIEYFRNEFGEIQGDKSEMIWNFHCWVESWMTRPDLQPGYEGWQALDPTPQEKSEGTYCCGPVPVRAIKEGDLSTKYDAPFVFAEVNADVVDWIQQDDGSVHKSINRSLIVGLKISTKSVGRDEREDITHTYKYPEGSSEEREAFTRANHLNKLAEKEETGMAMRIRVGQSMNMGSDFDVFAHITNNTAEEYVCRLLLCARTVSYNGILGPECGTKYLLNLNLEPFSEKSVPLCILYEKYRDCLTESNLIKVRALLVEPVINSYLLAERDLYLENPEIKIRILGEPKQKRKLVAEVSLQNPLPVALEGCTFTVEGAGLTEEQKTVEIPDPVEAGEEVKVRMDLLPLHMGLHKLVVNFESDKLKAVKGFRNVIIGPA
Description: as §1, §2

COL23A1 = target: T5, COL23A1 (human, UniProt Q86Y22)
T5 construct: expressed in transfected HEK293 cells
Description: as §1, §2

EDN1 = target: T6, EDN1 (human, UniProt P05305)
T6 construct: expressed in transfected HEK293 cells
T6 sequence (looked up): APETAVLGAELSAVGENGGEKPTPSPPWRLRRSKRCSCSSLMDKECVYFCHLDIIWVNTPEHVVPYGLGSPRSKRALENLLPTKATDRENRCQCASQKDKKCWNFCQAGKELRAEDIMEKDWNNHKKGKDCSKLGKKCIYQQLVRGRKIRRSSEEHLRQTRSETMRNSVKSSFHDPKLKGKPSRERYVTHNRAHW
Description: as §1, §2

PSAPL1 = target: T7, PSAPL1 (human, UniProt Q6NUJ1)
T7 construct: expressed in transfected HEK293 cells
T7 sequence (looked up): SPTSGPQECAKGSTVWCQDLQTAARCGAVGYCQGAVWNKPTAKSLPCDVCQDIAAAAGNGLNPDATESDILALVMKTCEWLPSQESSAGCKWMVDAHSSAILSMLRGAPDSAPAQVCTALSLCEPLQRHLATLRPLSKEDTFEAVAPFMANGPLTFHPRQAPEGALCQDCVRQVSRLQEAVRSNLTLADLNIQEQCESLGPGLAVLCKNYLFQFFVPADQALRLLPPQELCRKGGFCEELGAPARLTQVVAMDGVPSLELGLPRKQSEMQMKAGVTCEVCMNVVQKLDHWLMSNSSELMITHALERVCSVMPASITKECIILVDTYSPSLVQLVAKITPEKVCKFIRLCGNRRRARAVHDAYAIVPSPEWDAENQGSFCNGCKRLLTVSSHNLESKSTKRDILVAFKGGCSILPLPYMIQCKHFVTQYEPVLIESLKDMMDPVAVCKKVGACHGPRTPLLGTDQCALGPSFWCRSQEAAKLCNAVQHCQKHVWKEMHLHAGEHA
Description: as §1, §2

PPT1 = target: T8, PPT1 (human, UniProt P50897)
T8 construct: expressed in transfected HEK293 cells
T8 sequence (looked up): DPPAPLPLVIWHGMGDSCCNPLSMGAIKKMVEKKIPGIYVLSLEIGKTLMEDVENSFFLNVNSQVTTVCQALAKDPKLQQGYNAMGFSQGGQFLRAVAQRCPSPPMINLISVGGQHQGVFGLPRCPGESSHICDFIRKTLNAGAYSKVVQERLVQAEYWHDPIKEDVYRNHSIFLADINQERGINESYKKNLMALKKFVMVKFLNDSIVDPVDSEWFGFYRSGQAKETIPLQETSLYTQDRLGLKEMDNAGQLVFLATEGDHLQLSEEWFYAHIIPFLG
Description: as §1, §2

Measured: binding result

T5 sequence (Q86Y22 whole entry): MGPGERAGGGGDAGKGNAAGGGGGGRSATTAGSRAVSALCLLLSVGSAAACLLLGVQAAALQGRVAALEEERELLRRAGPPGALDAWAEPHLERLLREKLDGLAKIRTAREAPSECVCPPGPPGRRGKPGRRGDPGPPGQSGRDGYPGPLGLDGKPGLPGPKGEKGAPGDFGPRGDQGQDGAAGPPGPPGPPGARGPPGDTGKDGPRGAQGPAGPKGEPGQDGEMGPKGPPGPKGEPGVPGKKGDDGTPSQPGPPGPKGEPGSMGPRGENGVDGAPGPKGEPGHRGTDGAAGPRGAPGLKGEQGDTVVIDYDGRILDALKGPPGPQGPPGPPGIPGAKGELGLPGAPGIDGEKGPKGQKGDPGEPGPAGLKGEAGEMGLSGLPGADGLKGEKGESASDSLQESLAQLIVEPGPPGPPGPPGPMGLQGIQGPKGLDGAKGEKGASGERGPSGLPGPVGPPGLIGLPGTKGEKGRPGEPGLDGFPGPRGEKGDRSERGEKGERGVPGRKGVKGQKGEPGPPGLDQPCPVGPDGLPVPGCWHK

B1: humanized h37M, human IgG1 (antibody, V domains shown)
VH: QVQLVQSGAEVKKPGASVKLSCKASGYTFTDYYINWVRQAPGKGLEWIARIYPGSGNTYYNEKFKGRATLTADKSTSTAYMQLSSLRSEDTAVYFCARGVYYFDYWGQGTTVTVSS
VL: DIVMTQSPSSLSASVGDRVTITCKASQNVRTNVAWYQQKPGKAPKALIYSASYRYSGVPDRFTGSGSGTDFTLTISSLQPEDFADYFCQQYNSYPRTFGGGTKVEIK
notes: human IgG1; terbium-labelled as the tracer of the HTRF assays; also called C-KIT-h37M; h37M-IgG1
no binding (tested: 2 µg/ml): all assays above
